Paper PMC3036719
Read-outs that look alike come from different tables or passages of the source.

Columns and labels:
[1] = molecular target: fibrinogen fragment D (human); test: bacterial cell adhesion ELISA; wells coated with 1 µg human fibrinogen or fragment D, blocked with 20 mg/mL BSA; 3×10^8 leptospires, 1 h at 30°C; adherent cells fixed with formaldehyde and detected with a rabbit antibody to L. biflexa; increase over wild-type L. biflexa
human fibrinogen (human) [2] = molecular target: human fibrinogen (human) (UniProt P02671); test: as above
human fibrinogen (human) [3] = molecular target: human fibrinogen (human) (UniProt P02671); test: ELISA; host protein (1 µg per well) immobilised in microtiter wells, blocked with 20 mg/mL BSA; recombinant LigB in 20 mg/mL BSA in PBS pH 7.2, 1 h at 37°C; bound LigB detected by its polyhistidine tag; apparent Kd from the LigB concentration at half-maximal binding
[4] = molecular target: human fibronectin from plasma (human); test: as above
human fibrinogen (human) [5] = molecular target: human fibrinogen (human) (UniProt P02671)
[6] = molecular target: human fibronectin from fibroblasts (human); test: ELISA; host protein (1 µg per well) immobilised in microtiter wells, blocked with 20 mg/mL BSA; recombinant LigB in 20 mg/mL BSA in PBS pH 7.2, 1 h at 37°C; bound LigB detected by its polyhistidine tag; apparent Kd from the LigB concentration at half-maximal binding
[7] = molecular target: human fibronectin from plasma (human); test: as above; remark: listed apart in the source
[8] = molecular target: human type III collagen (human) (UniProt P02461); test: as above
human fibrinogen (human) [9] = molecular target: human fibrinogen (human) (UniProt P02671); test: as above; remark: listed apart in the source
human fibrinogen (human) [10] = molecular target: human fibrinogen (human) (UniProt P02671); test: ELISA; data not shown; LigB proteins on immobilised fibronectin, its 70-kDa N-terminal fragment or fibrinogen
[11] = molecular target: human fibronectin from plasma (human); test: as above

Sequence of human fibrinogen (human) (P02671 20-866, chain 1 of 3): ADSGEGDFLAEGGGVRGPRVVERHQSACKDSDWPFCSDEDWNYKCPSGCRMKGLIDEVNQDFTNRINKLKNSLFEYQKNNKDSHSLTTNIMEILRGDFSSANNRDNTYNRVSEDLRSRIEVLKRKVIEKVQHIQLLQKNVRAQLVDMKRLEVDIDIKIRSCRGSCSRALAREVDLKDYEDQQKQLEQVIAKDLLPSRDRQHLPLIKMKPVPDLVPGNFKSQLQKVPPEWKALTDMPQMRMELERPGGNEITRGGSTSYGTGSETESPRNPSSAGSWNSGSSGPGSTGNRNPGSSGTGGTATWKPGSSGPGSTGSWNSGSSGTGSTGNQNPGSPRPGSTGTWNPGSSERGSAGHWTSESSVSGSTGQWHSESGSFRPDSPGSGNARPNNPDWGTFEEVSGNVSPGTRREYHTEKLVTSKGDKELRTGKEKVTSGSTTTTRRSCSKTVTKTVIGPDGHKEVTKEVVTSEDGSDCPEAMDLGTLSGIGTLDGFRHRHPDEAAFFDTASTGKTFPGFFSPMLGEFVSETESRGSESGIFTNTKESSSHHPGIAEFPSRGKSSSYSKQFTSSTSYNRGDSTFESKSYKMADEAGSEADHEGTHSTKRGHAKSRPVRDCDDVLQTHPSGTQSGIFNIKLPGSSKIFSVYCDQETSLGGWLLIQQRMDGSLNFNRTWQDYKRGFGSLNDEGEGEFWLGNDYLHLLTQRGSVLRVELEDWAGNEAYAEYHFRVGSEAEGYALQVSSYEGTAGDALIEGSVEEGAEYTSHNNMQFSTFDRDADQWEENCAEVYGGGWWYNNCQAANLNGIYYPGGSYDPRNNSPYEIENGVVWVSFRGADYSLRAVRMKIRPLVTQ
Sequence of human fibrinogen (human) (P02675 31-491, chain 2 of 3, further chain): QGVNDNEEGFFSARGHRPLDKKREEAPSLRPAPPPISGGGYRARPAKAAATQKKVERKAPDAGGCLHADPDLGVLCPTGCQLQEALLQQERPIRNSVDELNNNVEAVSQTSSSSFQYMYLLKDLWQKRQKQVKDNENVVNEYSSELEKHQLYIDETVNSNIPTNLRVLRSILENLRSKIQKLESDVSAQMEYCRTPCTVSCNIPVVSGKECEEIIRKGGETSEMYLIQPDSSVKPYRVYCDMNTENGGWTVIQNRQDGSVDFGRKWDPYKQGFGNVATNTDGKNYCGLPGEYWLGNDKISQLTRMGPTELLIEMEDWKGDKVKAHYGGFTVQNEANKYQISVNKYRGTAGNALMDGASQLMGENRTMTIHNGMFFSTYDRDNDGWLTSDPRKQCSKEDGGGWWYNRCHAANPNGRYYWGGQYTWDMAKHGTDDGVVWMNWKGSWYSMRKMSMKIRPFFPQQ
Sequence of human fibrinogen (human) (P02679 27-453, chain 3 of 3, further chain): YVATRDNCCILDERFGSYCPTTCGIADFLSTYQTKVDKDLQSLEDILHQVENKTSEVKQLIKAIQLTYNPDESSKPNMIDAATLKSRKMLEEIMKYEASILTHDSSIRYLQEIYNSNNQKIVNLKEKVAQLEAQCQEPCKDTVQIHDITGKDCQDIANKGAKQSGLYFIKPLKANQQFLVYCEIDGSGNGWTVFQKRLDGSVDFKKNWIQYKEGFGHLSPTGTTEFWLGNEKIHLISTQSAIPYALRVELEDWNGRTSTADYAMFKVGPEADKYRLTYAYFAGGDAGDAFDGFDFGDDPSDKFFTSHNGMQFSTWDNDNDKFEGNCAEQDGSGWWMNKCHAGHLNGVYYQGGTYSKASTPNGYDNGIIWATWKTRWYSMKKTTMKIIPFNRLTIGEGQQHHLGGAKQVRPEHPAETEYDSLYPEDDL
Sequence of fibrinogen fragment D (human) (P02671 130-216, chain 1 of 3): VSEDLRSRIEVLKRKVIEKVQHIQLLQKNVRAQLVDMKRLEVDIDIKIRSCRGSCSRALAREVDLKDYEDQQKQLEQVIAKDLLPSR
Sequence of fibrinogen fragment D (human) (P02675 164-491, chain 2 of 3, further chain): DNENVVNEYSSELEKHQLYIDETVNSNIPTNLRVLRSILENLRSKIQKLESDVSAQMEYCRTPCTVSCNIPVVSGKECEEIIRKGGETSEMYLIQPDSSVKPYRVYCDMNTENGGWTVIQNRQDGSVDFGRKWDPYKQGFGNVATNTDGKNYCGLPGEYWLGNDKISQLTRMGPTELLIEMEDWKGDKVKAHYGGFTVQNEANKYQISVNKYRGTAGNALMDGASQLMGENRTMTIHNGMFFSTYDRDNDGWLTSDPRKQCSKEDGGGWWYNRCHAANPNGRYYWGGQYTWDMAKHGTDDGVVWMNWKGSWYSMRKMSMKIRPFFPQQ
Sequence of fibrinogen fragment D (human) (P02679 114-432, chain 3 of 3, further chain): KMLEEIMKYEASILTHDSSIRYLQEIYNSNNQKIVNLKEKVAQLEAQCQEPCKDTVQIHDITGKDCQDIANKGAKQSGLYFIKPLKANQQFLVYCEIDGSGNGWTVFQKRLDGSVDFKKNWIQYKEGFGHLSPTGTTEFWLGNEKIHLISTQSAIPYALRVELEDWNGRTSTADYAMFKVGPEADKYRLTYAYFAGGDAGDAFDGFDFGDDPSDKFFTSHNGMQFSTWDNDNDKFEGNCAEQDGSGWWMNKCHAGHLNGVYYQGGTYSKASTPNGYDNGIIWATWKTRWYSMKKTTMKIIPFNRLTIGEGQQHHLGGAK
Sequence of human type III collagen (human) (P02461 154-1221): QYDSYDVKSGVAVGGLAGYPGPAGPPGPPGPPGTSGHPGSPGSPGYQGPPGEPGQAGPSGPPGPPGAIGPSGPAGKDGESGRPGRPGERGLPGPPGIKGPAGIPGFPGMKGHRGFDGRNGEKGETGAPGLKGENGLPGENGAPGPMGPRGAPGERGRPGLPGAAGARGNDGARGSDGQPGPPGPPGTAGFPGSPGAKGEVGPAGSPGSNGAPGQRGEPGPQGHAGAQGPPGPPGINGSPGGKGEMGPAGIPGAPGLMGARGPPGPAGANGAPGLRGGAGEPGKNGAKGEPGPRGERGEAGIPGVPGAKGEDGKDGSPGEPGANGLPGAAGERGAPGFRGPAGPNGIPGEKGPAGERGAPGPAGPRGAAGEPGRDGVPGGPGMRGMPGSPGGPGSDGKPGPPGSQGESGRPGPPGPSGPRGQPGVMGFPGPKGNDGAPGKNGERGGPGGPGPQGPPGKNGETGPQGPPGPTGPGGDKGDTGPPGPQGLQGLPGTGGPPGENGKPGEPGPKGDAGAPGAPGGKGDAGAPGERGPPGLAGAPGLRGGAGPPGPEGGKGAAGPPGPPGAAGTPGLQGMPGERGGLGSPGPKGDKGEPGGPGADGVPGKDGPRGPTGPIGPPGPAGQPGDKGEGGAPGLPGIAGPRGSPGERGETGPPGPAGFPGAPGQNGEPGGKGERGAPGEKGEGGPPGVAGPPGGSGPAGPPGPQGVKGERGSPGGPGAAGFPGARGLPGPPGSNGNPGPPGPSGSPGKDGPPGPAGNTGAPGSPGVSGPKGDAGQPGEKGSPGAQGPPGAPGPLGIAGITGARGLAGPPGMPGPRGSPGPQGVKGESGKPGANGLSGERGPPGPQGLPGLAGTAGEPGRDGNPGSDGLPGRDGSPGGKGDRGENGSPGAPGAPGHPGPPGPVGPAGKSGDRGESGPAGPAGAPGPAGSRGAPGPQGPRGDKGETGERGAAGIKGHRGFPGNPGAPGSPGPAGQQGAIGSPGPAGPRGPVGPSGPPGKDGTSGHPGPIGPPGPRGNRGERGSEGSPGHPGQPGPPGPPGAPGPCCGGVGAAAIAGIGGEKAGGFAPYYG

Row | Substance | Kd (human fibrinogen (human) [3]) | Kd [4] | further results
1 | LigA from L. interrogans expressed on L. biflexa (ligA transformant) (natural protein) |  |  | percent increase of adhesion over wild-type L. biflexa [1]: 58%; percent increase of adhesion over wild-type L. biflexa (human fibrinogen (human) [2]): 55%; percent increase of adhesion over wild-type L. biflexa (representative experiment) (human fibrinogen (human) [2]): 56%
2 | LigB7′-10 (domain or fragment) | 207 nM | 77 nM | 
3 | LigB7′-11 (domain or fragment) | 63 nM | 27 nM | 
4 | LigB7′-12 (domain or fragment) | 34 nM | 23 nM | 
5 | LigB8-12 (domain or fragment) |  | 26 nM | 
6 | LigB9-10 (domain or fragment) | 169 nM | 252 nM | 
7 | LigB9-11 (domain or fragment) | 27 nM | 31 nM | decrease of thrombin-catalysed fibrin formation from purified fibrinogen (3 µM fibrinogen preincubated with 5 µM LigB9-11; three determinations, 22 to 43%) (human fibrinogen (human) [5]): 29%; Kd [6]: 25 nM; Kd [7]: 32 nM; Kd [8]: 30 nM; Kd (human fibrinogen (human) [9]): 28 nM
8 | LigB9-11 with N-terminal H6 (cloned in pET-14b) (domain or fragment) |  |  | residual fibrinogen-binding activity relative to LigB9-11 (human fibrinogen (human) [10]): < 10%
9 | LigB9-11′ (domain or fragment) |  |  | percent decrease of fibrinogen-binding activity relative to LigB9-11 (human fibrinogen (human) [10]): 50%; percent decrease of fibronectin-binding activity relative to LigB9-11 [11]: 80%
10 | LigB9-12 (domain or fragment) | 37 nM | 22 nM | 
11 | LigB from L. interrogans expressed on L. biflexa (ligB transformant) (natural protein) |  |  | percent increase of adhesion over wild-type L. biflexa (human fibrinogen (human) [2]): 55%; percent increase of adhesion over wild-type L. biflexa (representative experiment) (human fibrinogen (human) [2]): 37%
